Reference: patent US12012446B2, “Epstein-Barr virus antibodies and uses thereof” (priority 2017, dated 2024)

Legend:
[1] = tested on: EBV-eGFP infection of Raji cells; test: EBV neutralization assay in Raji cells; assay type: cell-based, Epstein-Barr virus
Method in brief: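 Purified anti-gp350 mAbs were preincubated 2 h at 37° C with purified AGS-EBV-eGFP, then used to infect 5×10^5 Raji cells for 2 h. After washing, cells were cultured 48 h and eGFP+ cells counted by flow cytometry. % neutralization = (EBV alone − EBV+mAb)/EBV alone × 100; mAbs at 12.5, 25, 50 and 100 μg/ml.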

[2] = biological target: T1, EBV gp350 stably expressed on CHO cells (Epstein-Barr virus, UniProt P03200); test: Epitope mapping by competitive cell binding assay with biotinylated mAbs
T1 construct: stably co-transfected with full-length pCAGGS-gp350/220 and pCI-puro vector; expressed in transfected cells; host or cells: CHO cells
T1 sequence (P03200 whole entry): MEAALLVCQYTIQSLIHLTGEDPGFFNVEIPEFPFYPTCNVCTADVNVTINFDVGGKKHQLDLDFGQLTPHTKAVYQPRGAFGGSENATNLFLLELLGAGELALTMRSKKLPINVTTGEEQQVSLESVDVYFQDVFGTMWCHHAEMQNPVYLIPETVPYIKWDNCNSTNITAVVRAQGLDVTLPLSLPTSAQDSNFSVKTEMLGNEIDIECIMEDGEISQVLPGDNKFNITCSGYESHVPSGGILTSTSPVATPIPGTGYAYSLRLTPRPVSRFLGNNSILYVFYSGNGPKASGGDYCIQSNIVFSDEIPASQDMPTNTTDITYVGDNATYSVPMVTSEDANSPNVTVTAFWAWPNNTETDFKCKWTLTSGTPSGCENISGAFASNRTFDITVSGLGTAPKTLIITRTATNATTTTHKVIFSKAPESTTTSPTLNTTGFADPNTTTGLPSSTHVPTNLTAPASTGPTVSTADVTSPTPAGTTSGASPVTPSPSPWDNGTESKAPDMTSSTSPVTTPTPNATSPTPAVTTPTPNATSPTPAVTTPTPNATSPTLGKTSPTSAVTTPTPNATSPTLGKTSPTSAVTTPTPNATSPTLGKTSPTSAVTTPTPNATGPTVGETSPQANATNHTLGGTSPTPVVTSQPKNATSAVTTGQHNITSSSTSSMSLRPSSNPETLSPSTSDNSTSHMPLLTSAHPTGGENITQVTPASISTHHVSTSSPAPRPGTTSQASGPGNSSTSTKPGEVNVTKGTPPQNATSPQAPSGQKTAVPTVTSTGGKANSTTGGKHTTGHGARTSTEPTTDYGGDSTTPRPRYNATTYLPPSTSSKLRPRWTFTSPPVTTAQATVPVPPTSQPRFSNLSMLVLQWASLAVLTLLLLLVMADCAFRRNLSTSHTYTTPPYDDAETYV
Method in brief: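 CHO cells stably expressing gp350 preincubated 2 h with unlabeled competitor mAbs (500, 250, 125, 67.5 μg/ml), then 2 h with 1 μg/ml biotinylated mAb, detected by anti-biotin AF488 flow cytometry. % inhibition = 100−(% positive cells with competitor/% without)×100; anti-KSHV gH/gL 54A1 as non-specific control.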

[3] = biological target: T2, purified EBV gp350/220 (recombinant EBV gp350 ectodomain) (Epstein-Barr virus, UniProt P03200); test: Indirect ELISA on recombinant EBV gp350 ectodomain; assay type: binding; conditions: purified antibodies 10 μg/ml
T2 construct: purified EBV gp350 ectodomain protein (AA 4-863); purchased Immune Technology Corporation
T2 sequence (P03200 4-863): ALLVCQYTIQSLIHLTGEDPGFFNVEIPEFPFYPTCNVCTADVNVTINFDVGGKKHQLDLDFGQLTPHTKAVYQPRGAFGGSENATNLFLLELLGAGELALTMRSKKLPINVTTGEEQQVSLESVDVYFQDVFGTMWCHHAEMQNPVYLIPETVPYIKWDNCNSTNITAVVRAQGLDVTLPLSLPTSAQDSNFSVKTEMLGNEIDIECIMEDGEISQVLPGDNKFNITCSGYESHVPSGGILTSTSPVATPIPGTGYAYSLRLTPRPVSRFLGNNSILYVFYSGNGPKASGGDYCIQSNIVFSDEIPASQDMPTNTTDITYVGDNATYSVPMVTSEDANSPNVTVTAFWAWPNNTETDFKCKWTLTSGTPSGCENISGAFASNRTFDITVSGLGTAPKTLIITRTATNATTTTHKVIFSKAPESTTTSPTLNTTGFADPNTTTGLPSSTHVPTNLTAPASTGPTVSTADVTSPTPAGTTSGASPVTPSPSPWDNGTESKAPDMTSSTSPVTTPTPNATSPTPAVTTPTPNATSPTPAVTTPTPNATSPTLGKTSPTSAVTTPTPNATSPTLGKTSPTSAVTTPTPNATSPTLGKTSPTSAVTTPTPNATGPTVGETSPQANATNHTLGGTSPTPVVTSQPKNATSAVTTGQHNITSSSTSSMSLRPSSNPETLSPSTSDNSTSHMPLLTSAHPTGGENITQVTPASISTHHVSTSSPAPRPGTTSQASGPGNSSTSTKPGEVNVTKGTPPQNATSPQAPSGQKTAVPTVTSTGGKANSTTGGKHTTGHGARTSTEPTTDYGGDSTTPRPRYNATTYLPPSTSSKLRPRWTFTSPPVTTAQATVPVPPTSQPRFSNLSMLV
Method in brief: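 Plates coated overnight at 4 °C with recombinant gp350 ectodomain at 0.5 μg/ml, blocked with 2% BSA. Hybridoma supernatant or purified mAb (10 μg/ml) bound 2 h at room temperature, in triplicate. Detection by HRP anti-mouse IgG (1:2,000) with ABTS, SDS stop, A405.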

B1: HB20: murine anti-EBV gp350 mAb, IgG2a κ; SEQ ID NO: 128 / 129; neutralizing (antibody, V domains shown)
VH: ELVKPGASVKLSCKASGYTFTSYWIQWVKQRPGQGLEWIGEINPTNGHTNYNEKFKTKATLTVDKSSSTAYMRLSSLTSEDSAVYYCARNLYYYGRPDYWGQGTSVTVSSAKTTAPSVYPLAPVCGDTTGSSVTLG
VL: SSLSASLGDRVTISCRASQDIGNYLNWYQQKPDGTVKLLIYYTSRLHSGVPSRFSGSGSGTDYSLTISNLEQEDIATYFCQQGNALPPTFGGGTKLEIKRADAAPTV
modifications: heavy chain mAb HB20; light chain mAb HB20
notes: murine anti-EBV gp350 mAb, IgG2a κ; neutralizing
[1]; as stated in Example 8
  EBV neutralization, summary statement: one of the best nAb
[1]; protein G and size-exclusion chromatography-purified mAbs, 12.5-100 μg/ml
  blocking of EBV infection of Raji cells (in words): blocked EBV infection in a dose-dependent manner
[1]; spin-column purified mAbs, 12.5, 25, 50 and 100 μg/ml
  neutralization of EBV in Raji cells (in words): failed to neutralize EBV infection
[2]; biotinylated antibodies
  competitive binding versus m72A1 and h72A1 (in words): only partial binding to the overlapping targets
[2]; biotinylated m72A1 1 μg/ml, unlabeled mAbs 500-67.5 μg/ml
  antigen binding competition with biotinylated m72A1 (in words): Antigen binding competition was observed
[3]
  ELISA binding to purified EBV gp350/220: +
